The text below walks through data of article PMC4855144.

Assay [1] has as its target GST-Cdc42 constitutively active (CA/Q61L), preloaded with GTPγS (UniProt P60953). The experiment in a line: GST pull-down, western blot quantified with ImageJ. The following applies: GST-Cdc42 CA on Glutathione-Sepharose beads pre-loaded with GTPγS; lysates from HEK293T cells; input set at 100%; 3 independent experiments; parent: est. 19; read off a plot.
Assay [2] addresses GST-Cdc42 dominant negative (DN/T17N), preloaded with GDP (UniProt P60953). The experiment in a line: GST pull-down, western blot quantified with ImageJ. The following applies: GST-Cdc42 DN on Glutathione-Sepharose beads pre-loaded with GDP; lysates from HEK293T cells; input set at 100%; 3 independent experiments; parent: est. 60; read off a plot.
For assay [3], the target named is GST-Cdc42 constitutively active (CA/Q61L), preloaded with GTPγS (UniProt P60953). The experiment in a line: pull-down; Glutathione-Sepharose beads coated with GST alone or GST-GTPase fusions pre-loaded with GDP (DN) or GTPγS (CA), incubated with lysates of HEK293T cells expressing GFP-CRN7 WT or CRIB mutants; blot with GFP mAb K3-184-2 or anti-N-WASP; ImageJ quantification, input set at 100%.
Chain of GST-Cdc42 constitutively active (CA/Q61L), preloaded with GTPγS (P60953 whole entry Q61L, the tested form may be a part): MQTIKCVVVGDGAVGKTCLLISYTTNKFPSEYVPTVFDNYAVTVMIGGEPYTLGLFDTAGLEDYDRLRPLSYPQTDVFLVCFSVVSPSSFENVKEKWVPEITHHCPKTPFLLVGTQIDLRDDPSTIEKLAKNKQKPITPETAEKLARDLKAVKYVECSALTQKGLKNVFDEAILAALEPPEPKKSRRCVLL

Chain of GST-Cdc42 dominant negative (DN/T17N), preloaded with GDP (P60953 whole entry T17N, the tested form may be a part): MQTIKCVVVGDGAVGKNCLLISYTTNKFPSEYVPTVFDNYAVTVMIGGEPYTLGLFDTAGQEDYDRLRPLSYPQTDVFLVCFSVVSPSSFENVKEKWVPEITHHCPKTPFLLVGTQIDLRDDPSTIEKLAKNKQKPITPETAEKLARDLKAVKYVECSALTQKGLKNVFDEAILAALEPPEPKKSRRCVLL
Chain of GFP-CRN7 WT (human Coronin7, full length, GFP on its N-terminus) (from UniProt P57737) CT-CRIB L>A; T>A; P>A (… > …); residue numbers not printed (P57737 whole entry, change not shown): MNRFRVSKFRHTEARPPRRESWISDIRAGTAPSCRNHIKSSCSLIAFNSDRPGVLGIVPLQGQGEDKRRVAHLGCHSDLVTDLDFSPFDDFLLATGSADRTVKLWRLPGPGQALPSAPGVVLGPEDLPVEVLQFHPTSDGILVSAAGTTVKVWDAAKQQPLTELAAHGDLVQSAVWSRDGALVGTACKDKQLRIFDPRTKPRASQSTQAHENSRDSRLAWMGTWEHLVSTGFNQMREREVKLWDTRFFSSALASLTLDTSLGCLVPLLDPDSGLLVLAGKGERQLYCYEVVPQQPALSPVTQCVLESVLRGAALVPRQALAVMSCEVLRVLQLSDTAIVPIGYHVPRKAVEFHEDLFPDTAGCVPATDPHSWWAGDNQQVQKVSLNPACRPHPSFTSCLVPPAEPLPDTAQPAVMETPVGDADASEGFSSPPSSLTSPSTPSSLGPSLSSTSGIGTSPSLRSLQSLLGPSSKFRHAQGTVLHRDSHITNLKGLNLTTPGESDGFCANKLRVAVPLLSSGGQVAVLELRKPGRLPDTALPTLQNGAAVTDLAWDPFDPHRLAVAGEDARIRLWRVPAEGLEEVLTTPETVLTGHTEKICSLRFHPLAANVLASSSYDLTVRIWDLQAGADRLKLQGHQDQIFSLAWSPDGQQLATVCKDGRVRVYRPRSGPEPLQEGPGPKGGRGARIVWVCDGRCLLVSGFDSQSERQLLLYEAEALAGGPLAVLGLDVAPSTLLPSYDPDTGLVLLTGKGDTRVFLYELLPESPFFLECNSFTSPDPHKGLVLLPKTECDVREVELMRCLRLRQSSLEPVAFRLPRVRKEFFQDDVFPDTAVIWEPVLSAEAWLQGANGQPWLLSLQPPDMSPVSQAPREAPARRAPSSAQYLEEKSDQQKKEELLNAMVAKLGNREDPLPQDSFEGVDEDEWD
Chain of GFP-CRN7 WT (human Coronin7, full length, GFP on its N-terminus) (from UniProt P57737) NT-CRIB S>A; P>A (… > …); residue numbers not printed (P57737 whole entry, change not shown): as above

In the case of “GFP-CRN7 WT (human Coronin7, full length, GFP on its N-terminus) (from UniProt P57737) CT-CRIB L>A; T>A; P>A (… > …); residue numbers not printed”, the response is 41 % of input in assay [1] and 57 % of input in assay [2].

On to “GFP-CRN7 WT (human Coronin7, full length, GFP on its N-terminus) (from UniProt P57737) NT-CRIB S>A; P>A (… > …); residue numbers not printed”, for which the response in assay [1] is 32 % of input; in assay [2], 67 % of input.

As for “GFP-CRN7 WT (human Coronin7, full length, GFP on its N-terminus) (from UniProt P57737 1-925) (natural protein)”, the percent of input bound in assay [3] is 30 % of input.
